Assay results from patent US20120082667A1 (IMMUNAS PHARMA, published 2012).
Numbering of substitutions follows the chain as printed. One block for each binder: values may come before it.

Tests used:
synthesized A beta1-42 [1] = molecular target: T1, synthesized A beta1-42 (UniProt P05067 672-713); experiment: dot blot: peptide spotted on nitrocellulose (0.1 micro g/dot), hybridoma culture supernatant, HRP anti-mouse IgG, ECL
T1 construct: domain: A beta1-42; spotted in the dot blot as the second of the two types of oligomers; also called A beta42 oligomer
Description: (§1) Dot blot analysis was carried out for hybridomas that gave positive result for primary screening. […] The membrane was blocked with Tris Buffer containing 5% low-fat milk and 0.05% Tween-20, and reacted with hybridoma culture supernatants and detected with chemiluminescence kit (ECL) after reacting with HRP-conjugated anti-mouse IgG antibody.

[2] = molecular target: T2, A beta monomer prepared from synthetic A beta1-40 (TFA form), 0.1 mg/ml in PBS (UniProt P05067 672-711); experiment: competitive ELISA: antibody pre-incubated with soluble A beta1-40 monomer (inhibitor, varied), then binding to immobilised A beta1-40 oligomer read as OD450
T2 construct: domain: A beta1-40; also called A beta1-40 monomer; A beta40 monomer

[3] = molecular target: T3, A beta oligomer prepared from synthetic A beta1-40 (HCl form), 0.1 mg/ml in PBS, incubated at 37 degrees C … (UniProt P05067 672-711); experiment: competitive ELISA: antibody pre-incubated with soluble A beta1-40 oligomer (inhibitor, varied), then binding to immobilised A beta1-40 oligomer read as OD450
T3 construct: domain: A beta1-40; non-fibrous assembly of A beta1-40; also called A beta1-40 oligomer; A beta40 oligomer

[4] = molecular target: T3, A beta oligomer prepared from synthetic …; experiment: dot blot: peptide spotted on nitrocellulose (0.1 micro g/dot), hybridoma culture supernatant, HRP anti-mouse IgG, ECL
Description: as §1

[5] = molecular target: T2, A beta monomer prepared from synthetic …; experiment: as above
Description: as §1

synthesized A beta1-42 [6] = molecular target: T1, synthesized A beta1-42; experiment: dot blot, synthesized A beta1-42 spotted, hybridoma supernatant
Description: as §1

B2: AL-221 antibody (antibody, IgG2b, V domains shown)
VH: QVTLKESGPGILKPSQTLSLTCSFSGFSLSTSGMGVGWIRQPSGKGLEWLAHIWWDDDKYYNPSLKSQLTISKDTSRNQVFLKITSVDTADTATYYCARRSLSRDYFDYWGQGTTLTVSS
VL: DVLMTQTPLSLPVSLGDQASISCRSSQSIVHSNGNTYLEWYLQKPGQSPKLLIYKVSNRFSGVPDRFSGSGSGTDFTLKISRVEAEDLGVYYCFQGSHVPLTFGAGTKLELK
binding result (synthesized A beta1-42 [1]): binds | binding result [4]: binds | binding result [5]: binds

B5: AL-204 antibody (antibody, V domains shown)
VH: EVQLVESGGGLVKPGGSLKLSCAASGFTFSDYYMYWVRQTPEKRLEWVATISDGGSYTYYPDSVKGRFTISRDNAKNNLYLQMSSLKSEDTAMYYCARAKYYRYDGGGAYAMDYWGQGTSVTVSS
VL: NIMMTQSPSSLAVSAGEKVTMSCKSSQSVLYSSNQKNYLAWYQQKPGQSPKLLIYWASTRESGVPDRFTGSGSGTDFTLTISSVQAEDLAVYYCHQYLSSYTFGGGTKLEIK
binding result (synthesized A beta1-42 [6]): binds

Other lines, results leading:

binding result (synthesized A beta1-42 [1]): binds | binding result [2]: binds | binding result [3]: binds
B1: AL-233 antibody (antibody, IgG2b, V domains shown)
VH: DVQLQESGPDLVKPSQSLSLTCTVTGYSITSGYSWHWIRQFPGNKLEWMGYIHYSGSTNYNPSLKSRISITRDTSKNQFFLQLNSVTTEDTATYYCARRGYDGYYSWFAYWGQGTLVTVSA
VL: SQAVVTQESALTTSPGETVTLTCRSSTGAVTTSNYANWVQEKPDHLFTGLIGGTNNRAPGVPARFSGSLIGDKAALTITGAQTEDEAIYFCALWYSNHWVFGGGTKLTVLG

binding result (synthesized A beta1-42 [1]): binds | binding result [2]: binds | binding result [3]: binds
B3: AL-231 antibody (antibody, IgG2a, V domains shown)
VH: B2 VH with S101A, S103N, R104W, Y106V
VL: B2 VL

binding result (synthesized A beta1-42 [6]): binds
B4: AL-205 antibody (antibody, IgG2a, V domains shown)
VH: EVKLEESGGGLVQPGGSMKLSCVASGFTFSNYWMNWVRQSPEKGLEWVAEIRLKSNNYATHYAESVKGRFTISRDDSKSSVYLQMNNLRAEDTGIYYCTRGTRVWLRREAWFAYWGQGTLVTVSA
VL: not shown
